Like-named read-outs stand apart in the source and are kept apart here.
Legend:
[1] = target: T1, integrin αvβ3, purified from human placenta (human, UniProt P06756 31-1048; P05106 27-788); experiment: SPR (BIAcore), purified Fab over immobilized αvβ3
T1 construct: mature; Native heterodimer, immobilized on ELISA plates or on the BIAcore chip; biotinylated in capture lift and capture ELISA screens; also called αvβ3 receptor; vitronectin receptor
Method: (§1) The affinities of select variants were further characterized by utilizing surface plasmon resonance (BIAcore) to measure the association and dissociation rates of purified Fab with immobilized αᵥβ₃. […] To obtain association rate constants (kₒₙ), the binding rate at five different Fab concentrations, ranging from 5-40 μg/ml in 50 mM Tris-HCl, pH 7.4, 100 mM NaCl, 2 mM CaCl₂, and 1 mM MgCl₂, was determined at a flow rate of 10 μl/min. Dissociation rate constants (koff) were the average of five measurements obtained by analyzing the dissociation phase at an increased flow rate (40 μl/min). Sensorgrams were analyzed with the BIAevaluation 2.1 program (Pharmacia). Residual Fab was removed after each measurement with 10 mM HCl, 2 mM CaCl₂ and 1 mM MgCl₂.

[2] = target: T1, integrin αvβ3, purified from human …; experiment: SPR (BIAcore), purified Fab over immobilized αvβ3; remark: listed apart in the source
Method: as §1

[3] = target: T1, integrin αvβ3, purified from human …; experiment: SPR (BIAcore), purified Fab over immobilized αvβ3; remark: listed apart in the source
[4] = target: T1, integrin αvβ3, purified from human …; experiment: ELISA titration of Fab on immobilized αvβ3
Method: Just prior to use, the plates were washed two times and were then incubated 1 h at 25° C. with various dilutions of Fab. […] All dilutions and washes were in 50 mM Tris-HCl, pH 7.4, 100 mM NaCl, 2 mM CaCl₂, and 1 mM MgCl₂.

T1 sequence (P06756 31-1048, form in doubt, chain 1 of 2): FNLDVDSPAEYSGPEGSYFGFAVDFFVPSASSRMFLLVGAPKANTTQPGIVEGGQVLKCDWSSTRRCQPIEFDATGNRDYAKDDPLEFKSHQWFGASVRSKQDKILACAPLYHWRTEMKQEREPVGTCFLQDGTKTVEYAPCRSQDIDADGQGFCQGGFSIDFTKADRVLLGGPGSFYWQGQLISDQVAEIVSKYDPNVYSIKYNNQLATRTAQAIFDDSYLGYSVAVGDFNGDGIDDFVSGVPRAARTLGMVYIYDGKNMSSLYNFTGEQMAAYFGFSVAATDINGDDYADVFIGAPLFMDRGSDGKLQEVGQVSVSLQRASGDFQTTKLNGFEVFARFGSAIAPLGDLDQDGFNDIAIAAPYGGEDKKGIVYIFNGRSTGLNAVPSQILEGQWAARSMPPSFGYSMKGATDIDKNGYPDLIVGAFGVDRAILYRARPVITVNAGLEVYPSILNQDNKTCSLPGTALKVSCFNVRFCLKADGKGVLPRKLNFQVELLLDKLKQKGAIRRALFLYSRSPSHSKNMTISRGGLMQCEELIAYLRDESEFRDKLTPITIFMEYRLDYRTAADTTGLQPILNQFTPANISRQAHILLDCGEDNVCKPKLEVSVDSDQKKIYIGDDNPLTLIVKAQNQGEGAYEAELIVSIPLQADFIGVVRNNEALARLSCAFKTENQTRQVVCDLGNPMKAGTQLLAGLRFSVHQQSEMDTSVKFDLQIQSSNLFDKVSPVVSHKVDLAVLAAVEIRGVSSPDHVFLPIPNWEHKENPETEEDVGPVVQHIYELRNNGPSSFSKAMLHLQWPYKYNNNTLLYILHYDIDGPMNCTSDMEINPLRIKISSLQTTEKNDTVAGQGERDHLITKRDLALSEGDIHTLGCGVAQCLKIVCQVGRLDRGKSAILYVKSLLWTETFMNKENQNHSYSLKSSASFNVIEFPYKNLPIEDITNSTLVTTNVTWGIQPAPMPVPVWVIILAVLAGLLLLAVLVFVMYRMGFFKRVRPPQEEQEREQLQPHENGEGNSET
T1 sequence (P05106 27-788, form in doubt, chain 2 of 2): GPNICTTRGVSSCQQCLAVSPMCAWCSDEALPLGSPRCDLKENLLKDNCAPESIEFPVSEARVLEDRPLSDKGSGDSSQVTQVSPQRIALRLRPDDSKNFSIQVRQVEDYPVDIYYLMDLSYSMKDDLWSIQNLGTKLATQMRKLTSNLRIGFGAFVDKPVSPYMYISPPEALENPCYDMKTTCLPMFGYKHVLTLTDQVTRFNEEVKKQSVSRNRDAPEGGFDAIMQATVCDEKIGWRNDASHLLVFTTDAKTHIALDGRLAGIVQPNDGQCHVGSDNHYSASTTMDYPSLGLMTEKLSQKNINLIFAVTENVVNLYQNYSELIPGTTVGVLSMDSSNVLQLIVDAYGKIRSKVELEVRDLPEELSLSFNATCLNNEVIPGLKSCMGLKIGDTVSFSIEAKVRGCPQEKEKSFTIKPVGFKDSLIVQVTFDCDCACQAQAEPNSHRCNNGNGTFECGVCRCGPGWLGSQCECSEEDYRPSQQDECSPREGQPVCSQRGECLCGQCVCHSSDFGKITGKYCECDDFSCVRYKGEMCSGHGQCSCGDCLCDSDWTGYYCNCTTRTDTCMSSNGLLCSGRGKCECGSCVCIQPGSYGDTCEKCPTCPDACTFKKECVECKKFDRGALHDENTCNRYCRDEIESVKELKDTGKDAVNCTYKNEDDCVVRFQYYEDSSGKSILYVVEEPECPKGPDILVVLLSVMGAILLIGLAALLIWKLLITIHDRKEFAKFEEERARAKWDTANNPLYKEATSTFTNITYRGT

B1: LM609 grafted antibody Fab (Fab, V domains shown)
VH: QVQLVESGGGVVQPGRSLRLSCAASGFTFSSYDMSWVRQAPGKGLEWVAKVSSGGGSTYYLDTVQGRFTISRDNSKNTLYLQMNSLRAEDTAVYYCARHNYGSFAYWGQGTTVTVSS
VL: EIVLTQSPATLSLSPGERATLSCQASQSISNHLHWYQQRPGQAPRLLIRYRSQSISGIPARFSGSGSGTDFTLTISSLEPEDFAVYYCQQSGSWPHTFGGGTKVEIK
notes: Fab expressed from M13 phage vector, human kappa chain, peptide tag on the carboxyl-terminus of the heavy chain; also called LM609 grafted Fab; parent LM609 grafted antibody
- Kd [1]: 27.6 nM
- koff [1]: 0.00497 s⁻¹
- kon [1]: 180000 M⁻¹ s⁻¹
- Kd [2]: 27.6 nM
- koff [2]: 0.00497 s⁻¹
- kon [2]: 180000 M⁻¹ s⁻¹

B2: LM609 grafted antibody combinatorial clone C176 (Fab, V domains shown)
VH: QVQLVESGGGVVQPGRSLRLSCAASGFTFSSYDMSWVRQAPGKGLEWVAKVSSGGGSTYYPDTVQGRFTISRDNSKNTLYLQMNSLRAEDTAVYYCARHNYGSFATWGQGTTVTVSS
VL: EIVLTQSPATLSLSPGERATLSCQASQSISNFLHWYQQRPGQAPRLLIRYRSQSISGIPARFSGSGSGTDFTLTISSLEPEDFAVYYCQQSGSWPHTFGGGTKVEIK
notes: Fab
- fold slower dissociation rate than parent [3]: > 10 fold
- Kd [2]: 0.9 nM
- koff [2]: 0.000192 s⁻¹
- kon [2]: 225000 M⁻¹ s⁻¹

B3: LM609 grafted antibody combinatorial clone 6D1 (Fab, V domains shown)
VH: QVQLVESGGGVVQPGRSLRLSCAASGFTFSSYDMSWVRQAPGKGLEWVAKVSSGGGSTYYPDTVQGRFTISRDNSKNTLYLQMNSLRAEDTAVYYCARHNYGSFYSWGQGTTVTVSS
VL: EIVLTQSPATLSLSPGERATLSCQASQSISNHLHWYQQRPGQAPRLLIRYRSQSISGIPARFSGSGSGTDFTLTISSLEPEDFAVYYCQQSGSWPLTFGGGTKVEIK
notes: Fab
- fold slower dissociation rate than parent [3]: > 10 fold
- Kd [2]: 0.4 nM
- koff [2]: 0.000158 s⁻¹
- kon [2]: 410000 M⁻¹ s⁻¹

B4: LM609 grafted antibody combinatorial clone C59 (Fab, V domains shown)
VH: QVQLVESGGGVVQPGRSLRLSCAASGFTFSSYDMSWVRQAPGKGLEWVAKVSSGGGSTYYPDTVQGRFTISRDNSKNTLYLQMNSLRAEDTAVYYCARHNYGSFADWGQGTTVTVSS
VL: EIVLTQSPATLSLSPGERATLSCQASQSISNFLHWYQQRPGQAPRLLIRYRSQSISGIPARFSGSGSGTDFTLTISSLEPEDFAVYYCQQSGSWPHTFGGGTKVEIK
notes: Fab
- fold slower dissociation rate than parent [3]: > 10 fold
- Kd [2]: 0.5 nM
- koff [2]: 0.000137 s⁻¹
- kon [2]: 265000 M⁻¹ s⁻¹

B5: LM609 grafted antibody combinatorial clone 7 (Fab, V domains shown)
VH: QVQLVESGGGVVQPGRSLRLSCAASGFTFSSYDMSWVRQAPGKGLEWVAKVSSGGGSTYYPDTVQGRFTISRDNSKNTLYLQMNSLRAEDTAVYYCARHNHGSFASWGQGTTVTVSS
VL: EIVLTQSPATLSLSPGERATLSCQASQSISNFLHWYQQRPGQAPRLLIRYRSQSISGIPARFSGSGSGTDFTLTISSLEPEDFAVYYCQQSGSWPHTFGGGTKVEIK
notes: Fab
- fold slower dissociation rate than parent [3]: > 10 fold
- Kd [2]: 1.2 nM
- koff [2]: 0.000236 s⁻¹
- kon [2]: 204000 M⁻¹ s⁻¹

B6: LM609 grafted antibody combinatorial clone C119 (Fab, V domains shown)
VH: QVQLVESGGGVVQPGRSLRLSCAASGFTFSSYDMSWVRQAPGKGLEWVAKVSSGGGSTYYPDTVQGRFTISRDNSKNTLYLQMNSLRAEDTAVYYCARHNYGSFASWGQGTTVTVSS
VL: EIVLTQSPATLSLSPGERATLSCQASQSISNHLHWYQQRPGQAPRLLIRYRSQSISGIPARFSGSGSGTDFTLTISSLEPEDFAVYYCQQSNSWPHTFGGGTKVEIK
notes: Fab
- fold greater affinity than parent LM609 grafted antibody [3]: 18 fold
- fold slower dissociation rate than parent [3]: > 10 fold
- Kd [2]: 1.5 nM
- koff [2]: 0.000316 s⁻¹
- kon [2]: 215000 M⁻¹ s⁻¹

B7: LM609 grafted antibody combinatorial clone 8F9 (Fab, V domains shown)
VH: QVQLVESGGGVVQPGRSLRLSCAASGFTFSSYDMSWVRQAPGKGLEWVAKVSSGGGSTYYPDTVQGRFTISRDNSKNTLYLQMNSLRAEDTAVYYCARHNHGSFASWGQGTTVTVSS
VL: EIVLTQSPATLSLSPGERATLSCQASQSISNHLHWYQQRPGQAPRLLIRYRSQSISGIPARFSGSGSGTDFTLTISSLEPEDFAVYYCQQSGSWPLTFGGGTKVEIK
notes: Fab
- fold slower dissociation rate than parent [3]: > 10 fold
- Kd [2]: 0.6 nM
- koff [2]: 0.00028 s⁻¹
- kon [2]: 475000 M⁻¹ s⁻¹

B8: LM609 grafted antibody combinatorial clone 6H6 (Fab, V domains shown)
VH: QVQLVESGGGVVQPGRSLRLSCAASGFTFSSYDMSWVRQAPGKGLEWVAKVSSGGGSTYYLDTVQGRFTISRDNSKNTLYLQMNSLRAEDTAVYYCARHNHGSFASWGQGTTVTVSS
VL: EIVLTQSPATLSLSPGERATLSCQASQSISNHLHWYQQRPGQAPRLLIRYRSQSISGIPARFSGSGSGTDFTLTISSLEPEDFAVYYCQQSGSWPLTFGGGTKVEIK
notes: Fab
- fold slower dissociation rate than parent [3]: > 10 fold
- Kd [2]: 0.4 nM
- koff [2]: 0.000187 s⁻¹
- kon [2]: 504000 M⁻¹ s⁻¹

B9: LM609 grafted antibody combinatorial clone 6G1 (Fab, V domains shown)
VH: QVQLVESGGGVVQPGRSLRLSCAASGFTFSSYDMSWVRQAPGKGLEWVAKVSSGGGSTYYPDTVQGRFTISRDNSKNTLYLQMNSLRAEDTAVYYCARHNYGSFASWGQGTTVTVSS
VL: EIVLTQSPATLSLSPGERATLSCQASQSISNHLHWYQQRPGQAPRLLIRYRSQSISGIPARFSGSGSGTDFTLTISSLEPEDFAVYYCQQSGSWPLTFGGGTKVEIK
notes: Fab
- fold greater association rate than parent [3]: 2 to 4 fold
- fold slower dissociation rate than parent [3]: > 10 fold
- Kd [2]: 0.7 nM
- koff [2]: 0.00028 s⁻¹
- kon [2]: 389000 M⁻¹ s⁻¹

B10: LM609 grafted antibody combinatorial clone 2G4 (Fab, V domains shown)
VH: QVQLVESGGGVVQPGRSLRLSCAASGFTFSSYDMSWVRQAPGKGLEWVAKVSSGGGSTYYLDTVQGRFTISRDNSKNTLYLQMNSLRAEDTAVYYCARHNYGSFASWGQGTTVTVSS
VL: EIVLTQSPATLSLSPGERATLSCQASQSISNHLHWYQQRPGQAPRLLIRYRSQSISGIPARFSGSGSGTDFTLTISSLEPEDFAVYYCQQSGSWPLTFGGGTKVEIK
notes: Fab
- fold enhanced affinity over parent LM609 grafted antibody [3]: > 50 fold
- fold slower dissociation rate than parent [3]: > 10 fold
- Kd [2]: 0.4 nM
- koff [2]: 0.000229 s⁻¹
- kon [2]: 603000 M⁻¹ s⁻¹

B11: LM609 grafted antibody combinatorial clone V357D (Fab, V domains shown)
VH: QVQLVESGGGVVQPGRSLRLSCAASGFTFSSYDMSWVRQAPGKGLEWVAKVSSGGGSTYYLDTVQGRFTISRDNSKNTLYLQMNSLRAEDTAVYYCARHNYGSFADWGQGTTVTVSS
VL: EIVLTQSPATLSLSPGERATLSCQASQSISNFLHWYQQRPGQAPRLLIRYRSQSISGIPARFSGSGSGTDFTLTISSLEPEDFAVYYCQQSGSWPHTFGGGTKVEIK
notes: Fab; V357D is a clone name, not a substitution
- fold enhanced affinity over parent LM609 grafted antibody [3]: > 50 fold
- fold slower dissociation rate than parent [3]: > 10 fold
- Kd [2]: 0.5 nM
- koff [2]: 0.00014 s⁻¹
- kon [2]: 279000 M⁻¹ s⁻¹

B12: LM609 grafted antibody variant D101 (Fab, V domains shown)
VH: QVQLVESGGGVVQPGRSLRLSCAASGFTFSSYDMSWVRQAPGKGLEWVAKVSSGGGSTYYLDTVQGRFTISRDNSKNTLYLQMNSLRAEDTAVYYCARHNYGSFDYWGQGTTVTVSS
VL: EIVLTQSPATLSLSPGERATLSCQASQSISNHLHWYQQRPGQAPRLLIRYRSQSISGIPARFSGSGSGTDFTLTISSLEPEDFAVYYCQQSGSWPHTFGGGTKVEIK
notes: Fab
- fold enhanced binding over parent LM609 grafted antibody [4]: > 3 fold

B13: LM609 grafted antibody combinatorial clone 17 (Fab, V domains shown)
VH: QVQLVESGGGVVQPGRSLRLSCAASGFTFSSYDMSWVRQAPGKGLEWVAKVSSGGGSTYYLDTVQGRFTISRDNSKNTLYLQMNSLRAEDTAVYYCARHNYGSFASWGQGTTVTVSS
VL: EIVLTQSPATLSLSPGERATLSCQASQSISNFLHWYQQRPGQAPRLLIRYRSQSISGIPARFSGSGSGTDFTLTISSLEPEDFAVYYCQQSGSWPHTFGGGTKVEIK
notes: Fab
- fold enhanced affinity over parent LM609 grafted antibody [3]: > 50 fold
- fold slower dissociation rate than parent [3]: > 10 fold
- Kd [2]: 0.5 nM
- koff [2]: 0.000138 s⁻¹
- kon [2]: 251000 M⁻¹ s⁻¹

B14: LM609 grafted antibody combinatorial clone C37 (Fab, V domains shown)
VH: QVQLVESGGGVVQPGRSLRLSCAASGFTFSSYDMSWVRQAPGKGLEWVAKVSSGGGSTYYLDTVQGRFTISRDNSKNTLYLQMNSLRAEDTAVYYCARHNYGSFYEWGQGTTVTVSS
VL: EIVLTQSPATLSLSPGERATLSCQASQSISNHLHWYQQRPGQAPRLLIRYRSQSISGIPARFSGSGSGTDFTLTISSLEPEDFAVYYCQQSGSWPLTFGGGTKVEIK
notes: Fab
- fold greater affinity than LM609 grafted antibody Fab [3]: ~90 fold
- fold greater affinity than parent LM609 grafted antibody [3]: 92 fold
- fold slower dissociation rate than parent [3]: > 10 fold
- Kd [2]: 0.3 nM
- koff [2]: 0.000147 s⁻¹
- kon [2]: 448000 M⁻¹ s⁻¹

B15: LM609 grafted antibody variant E64 (Fab, V domains shown)
VH: QVQLVESGGGVVQPGRSLRLSCAASGFTFSSYDMSWVRQAPGKGLEWVAKVSSGGGSTYYLDTVEGRFTISRDNSKNTLYLQMNSLRAEDTAVYYCARHNYGSFAYWGQGTTVTVSS
VL: EIVLTQSPATLSLSPGERATLSCQASQSISNHLHWYQQRPGQAPRLLIRYRSQSISGIPARFSGSGSGTDFTLTISSLEPEDFAVYYCQQSGSWPHTFGGGTKVEIK
notes: Fab
- fold enhanced binding over parent LM609 grafted antibody [4]: > 3 fold

B16: LM609 grafted antibody combinatorial clone C29 (Fab, V domains shown)
VH: QVQLVESGGGVVQPGRSLRLSCAASGFTFSSYDMSWVRQAPGKGLEWVAKVSSGGGSTYYPDTVQGRFTISRDNSKNTLYLQMNSLRAEDTAVYYCARHNHGSFYSWGQGTTVTVSS
VL: EIVLTQSPATLSLSPGERATLSCQASQSISNHLHWYQQRPGQAPRLLIRYRSQSISGIPARFSGSGSGTDFTLTISSLEPEDFAVYYCQQSGSWPLTFGGGTKVEIK
notes: Fab
- fold greater affinity than parent LM609 grafted antibody [3]: ~55 fold
- fold greater association rate than parent [3]: 2 to 4 fold
- fold slower dissociation rate than parent [3]: > 10 fold
- Kd [2]: 0.5 nM
- koff [2]: 0.000343 s⁻¹
- kon [2]: 675000 M⁻¹ s⁻¹

B17: LM609 grafted antibody combinatorial clone 56 (Fab, V domains shown)
VH: QVQLVESGGGVVQPGRSLRLSCAASGFTFSSYDMSWVRQAPGKGLEWVAKVSSGGGSTYYPDTVQGRFTISRDNSKNTLYLQMNSLRAEDTAVYYCARHNYGSFASWGQGTTVTVSS
VL: EIVLTQSPATLSLSPGERATLSCQASQSISNFLHWYQQRPGQAPRLLIRYRSQSISGIPARFSGSGSGTDFTLTISSLEPEDFAVYYCQQSGSWPHTFGGGTKVEIK
notes: Fab
- fold slower dissociation rate than parent [3]: > 10 fold
- Kd [2]: 0.5 nM
- koff [2]: 0.000135 s⁻¹
- kon [2]: 266000 M⁻¹ s⁻¹

From US20060204492A1 (published 2006)
